Here are results for four molecules from patent publication US20210147564A1 (TENEOBIO, published 2021).

For assay [1], the target named is T1, human BCMA ECD protein (Abcam ab50089) (human, UniProt Q02223 1-54).
T1 construct: extracellular domain; Bought protein; also called human BCMA protein; recombinant BCMA protein
T1 sequence (looked up): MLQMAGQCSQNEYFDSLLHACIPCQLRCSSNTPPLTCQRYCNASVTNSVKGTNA
The experiment in a line: ELISA on human BCMA ECD; Octet off-rate. The method, then: Supernatants of 4 antibodies were tested for binding in a standard ELISA assay to human and cynomolgus BCMA. Binding to recombinant BCMA protein was determined by ELISA using human BCMA ECD obtained from Abcam (ab50089). The BCMA ECD protein was used at a concentration of […] to capture UniAbs at 50 ng/mL. Binding of UniAbs was detected with a goat anti-human IgG HRP conjugated antibody (ThermoFisher 31413). All antibodies were diluted in 1×TBS with 0.05% Tween-20 and 1% dry milk powder.
(An ELISA detects its analyte on a solid surface through an enzyme-linked reagent.)

In assay [2] the target is T2, human BCMA on NCI-H929 cells (human, UniProt Q02223 1-184).
T2 construct: whole, on cells; also called H929 human cells that express BCMA; BCMA-expressing cell line (H929)
T2 sequence (looked up): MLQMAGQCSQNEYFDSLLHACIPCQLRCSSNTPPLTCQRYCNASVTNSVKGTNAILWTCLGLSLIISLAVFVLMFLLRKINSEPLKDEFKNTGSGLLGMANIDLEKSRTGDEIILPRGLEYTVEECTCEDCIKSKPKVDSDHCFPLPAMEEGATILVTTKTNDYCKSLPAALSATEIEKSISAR
The assay is described as follows: flow cytometry on H929 cells. The method, then: Supernatants of the 4 test anti-BCMA antibodies were also tested by flow cytometry for binding to H929 cells. The samples were measured by flow cytometry using a Guava easyCyte 8HT instrument from EMD Millipore and analyzed using guavaSoft. Bound antibodies were detected with goat anti-human IgG F(ab)2 conjugated to PE (Southern Biotech 2042-09). All antibodies were diluted in PBS with 1% BSA. Positive staining was determined by comparison to staining with a human IgG1 isotype control.
(In general: In flow cytometry, cells or beads pass a laser one at a time.)

B1: heavy chain-only anti-BCMA antibody (UniAb) with the heavy chain variable region of SEQ ID NO: 15 (antibody, V domains shown)
VH: EVQLLESGGGLVQPGGSLRLSCAASGFTFSSYAMSWVRQAPGKGLEWVSSISGSGDYIYYADSVKGRFTISRDISKNTLYLQMNSLRAEDTAVYYCAKEGTGANSSLADYRGQGTLVTVSS
notes: Heavy chain-only antibody expressed in HEK cells (CH1 deleted, no light chain), tested as supernatant; also called anti-BCMA UniAb; HCAb
With B1, the binding result in assay [1] and in assay [2] was “binds” each time.

B2: heavy chain-only anti-BCMA antibody (UniAb) with the heavy chain variable region of SEQ ID NO: 13 (antibody, V domains shown)
VH: QVQLVESGGGLVQPGGSLRLSCAASGFTFSSHAMTWVRQAPGKGLEWVAAISGSGDFTHYADSVKGRFTISRDNSKNTVSLQMNNLRAEDTAVYYCAKDEDGGSLLGYRGQGTLVTVSS
notes: as for B1
Consider B2, for which the binding result in assay [1] and in assay [2] was “binds” each time.

B3: heavy chain-only anti-BCMA antibody (UniAb) with the heavy chain variable region of SEQ ID NO: 14 (antibody, V domains shown)
VH: EVQLLESGGGLIQPGGSLRLSCAASGFTFSSHAMTWVRQAPGKGLEWVSAISGSGDYTHYADSVKGRFTISRDNSKNTVYLQMNSLRAEDSAVYYCAKDEDGGSLLGHRGQGTLVTVSS
notes: as for B1
B3: the binding result in assay [1] and in assay [2] was “binds” in each case.

B4: heavy chain-only anti-BCMA antibody (UniAb) with the heavy chain variable region of SEQ ID NO: 12 (antibody, V domains shown)
VH: QVQLVESGGGLVQPGGSLRLSCAASGFTFTNHAMSWVRQAPGKGLELVSSISGNGRTTYYADSVKGRFTISRDISKNTLDLQMNSLRAEDTAVYYCAKDGGETLVDSRGQGTLVTVSS
notes: as for B1
For the molecule B4, the binding result in assay [1] and in assay [2] was “binds” in each case.
